In patent publication US20210324359A1, “USE OF GRAM-NEGATIVE LYSIN-ANTIMICROBIAL PEPTIDE (AMP) POLYPEPTIDE CONSTRUCTS IN TREATING ENDOCARDITIS” (priority 2020, published 2021):

B1: GN431: lysin obtained from Dickeya phage phiD3 (SEQ ID NO: 64) (protein)
chain: MAILKLGNRGTEVKALQDSLNKIGFTLVADGIFGKATENAVKTVQAGAGLVIDGIVGPKTSYAIRNAGEAHQDHLTEADLIEAANQLGVDLASVKAVNQVESRGTGFTKSGKIKTLFERHIMYKKLMAKFGQARANAMGQMYPTLVSPVAGGYTGGDAELDRLHAAINIDEDCAYESASYGLFQIMGFNCQVCGYANAKEMFNDFLTGERAHLMAFVKFIKADAKLWQALKDKNWAEFARRYNGPAYTKNQYDTKLAAAYNSFN
modifications: Dickeya phage phiD3
B2: GN83: AMP OBPgpLYS fused to the N-terminus of lysin GN4 (SEQ ID NO: 216) (protein)
chain: MKNSEKNASIIMSIQRTLASLSLYGGRIDGLFGEKCRGAIILMLNKVYPNFSTNKLPSNTYEAESVFTFLQTALAGVGLYTITIDGKWGGTSQGAIDALVKSYRQITEAERAGSTLPLGLATVMSTSQRGIDLIKSFEGLRLSAYQDSVGVWTIGYGTTRGVTRYMTITVEQAERMLSNDIQRFEPELDRLAKVPLNQNQWDALMSFVYNLGAANLASSTLLKLLNKGDYQGAADQFPRWVNAGGKRLDGLVKRRAAERALFLEPLS
modifications: OBG_GN4_2 (Lyz+C-term)
B3: GN217: GN37 lysin with amino acid substitution R79H (SEQ ID NO: 8) (protein)
chain: MTYTLSKRSLDNLKGVHPDLVAVVHRAIQLTPVDFAVIEGLRSVSRQKELVAAGASKTMNSRHLTGHAVDLAAYVNGIHWDWPLYDAIAVAVKAAAKELGVAIVWGGDWTTFKDGPHFELDRSKYR
B4: GN93: lysin-AMP construct: cationic peptide (SEQ ID NO: 120) and linker N-terminal to GN14 lysin (SEQ ID NO: 62) (protein)
chain: MKFFKFFKFFKAGAGAGAGAGAGAGAGASNNELPWVAEARKYIGLREDTSKTSHNPKLLAMLDRMGEFSNESRAWWHDDETPWCGLFVGYCLGVAGRYVVREWYRARAWEAPQLTKLDRPAYGALVTFTRSGGGHVGFIVGKDARGNLMVLGGNQSNAVSIAPFAVSRVTGYFWPSFWRNKTAVKSVPFEERYSLPLLKSNGELSTNEA
B5: GN80: dispersin B-like molecule (SEQ ID NO: 214) (protein, listed as Staphylococcus sciuri)
chain: MENIQKGITVDIARKSYSLETLKTIVKHIHDHNGQYLQLHFSDDENYAIESEYFDRKSFSNPYYLTKTEVKSLIEYSNDLNVMVIPDMDFPSHSKAFLSLIKQNDKSLYQEIISDYSDNTLDFFSNRKAVDVTNRQIDEITELFKQPQFAEQQRIVLGGDEVAGGGAHQNSFIEYMNQIGDYAFQQGYEPQMWNDMVTHEGVKSLNNHYSILYWKQNEDNKSNLTVEDFDKYYFDVYNYNYYSLYFLPSKQFSQDDINEQAEYIGWAYAYNKFYYNKNPYSEVNSQNVKGSALSFWGEHATDMTQEELINQEVPLIKVYFNLKK
B6: GN76: lysin obtained from Acinetobacter phage vB_AbaP_CEB1 (SEQ ID NO: 203) (protein)
chain: MILTKDGFGIIRNELFGGKLDQTQVDAINFIVEKATESGLSYPEAAYLLATIYHETGLPSGYRTMQPIKEAGSDNYLRSKKYYPYIGYGYVQLTWKENYGRIGKLIGIDLIKNPEKALEPLIAIQIAIKGMLNGWFTGVGFRRKRPVSKYNKQQYIAARNIINGKDKAELIAKYAIIFERALRSL
modifications: Acinetobacter phage vB_AbaP_CEB1
B7: GN218: lysin-AMP construct: IGEM linker and RI12 antimicrobial peptide C-terminal to GN37 lysin (SEQ ID NO: 10) (protein)
chain: MTYTLSKRSLDNLKGVHPDLVAVVHRAIQLTPVDFAVIEGLRSVSRQKELVAAGASKTMNSRHLTGHAVDLAAYVNGIRWDWPLYDAIAVAVKAAAKELGVAIVWGGDWTTFKDGPHFELDRSKYGGGSGGGGSGGGSRLKKIGKVLKWI
B8: GN122: lysin obtained from Pseudomonas putida strain PA14H7 (SEQ ID NO: 218) (protein, listed as Pseudomonas putida)
chain: MSIFSFVKEAGEKLIDLLTPGNANASEQLKEHVSKVGLGNPNIQTTVEGSKVTVTGEVASQEEKEKILLALGNIAGVESVDDQITVTGPLVAAARFVVVKKGDTLSAISLAVYGNANQYNKIFEANKPLLSHPDKIYPGQTLRIPE
B9: GN178: lysin-AMP construct: Esculentin fragment and IGEM linker N-terminal to GN146 lysin (SEQ ID NO: 6) (protein)
chain: MPPIFSKLAGKKIKNLLISGLKGGSGSGSGSGSPRTSQRGIDLIKSFEGLRLSAYQDSVGVWTIGYGTTRGVTRYMTITVEQAERMLSNDIQRFEPELDRLAKVPLNQNQWDALMSFVYNLGAANLASSTLLDLLNKGDYQGAADQFPHWVNAGGKRLDGLVKRRAAERALFLEPLS
B10: GN357: lysin-AMP construct: TAGGTAGG linker and RR12Whydro C-terminal to GN316 lysin (SEQ ID NO: 38) (protein)
chain: MAILKIGSKGLEVKNLQTSLNKIGFNLVADGIFGKATDNAVRAVQAGAGLVVDGIAGPKTMYAIRNAGESHQDHLTEADLIDAARELSVDLASIKAVNQVESRGTGFTKSGKIKTLFERHIMYKKLNAKFGQAKANALAQLYPTLVNAKAGGYTGGDAELERLHGAIAIDKDCAYESASYGLFQIMGFNCVICGYDNAEEMFNDFLTGERAQLMAFVKFIKADANLWKALKDKNWAEFARRYNGPAYAQNQYDTKLAAAYKSFSTAGGTAGGRRLIRLWLRLLR

Experiments:
[1] = system: biofilms formed by P. aeruginosa strain ATCC 17646; conditions: strain ATCC 17646 biofilm
Experimental: Biofilms are then washed and treated with e.g., a 2-fold dilution series of the lysin in TSBg at e.g., 37° C. for 24 hours. After treatment, wells are washed, air-dried at e.g., 37° C. and stained with e.g., 0.05% crystal violet for 10 minutes.

[2] = system: Pseudomonas aeruginosa strain CFS-1292 (meropenem resistant); conditions: strain CFS-1292; no added cations
Experimental: The activity of selected GN lysins and constructs in the presence of divalent cations was evaluated, and the impact of divalent cations at physiological concentrations was examined in the MIC assay format.

P. aeruginosa = test: MIC, modified CLSI broth microdilution in CAA medium without or with […] human serum (Table 4); assay type: cell-based, Pseudomonas aeruginosa; conditions: for CAA MIC: CAA medium, no human serum; for CAA/HuS MIC: CAA supplemented with […] human serum; for effect of the structural modification on activity (as assessed by MIC) versus the parent lysin: CAA with and without human serum, parent GN316 or GN37; on CAA/HuS MIC: CAA supplemented with 2.5% human serum
From the text: 2015. […] Clinical and Laboratory Standards Institute, Wayne, Pa.

[3] = system: P. aeruginosa strain WC-453; test: Time-kill assay in HEPES or CAA with 25% human serum (Tables 7, 8); assay type: cell-based, Pseudomonas aeruginosa; conditions: for bactericidal activity (CFU decrease of 3-Log10, 3 hours after the addition of lysin): 10 μg/mL, enumerated lysins in CAA/HuS, general statement for HEPES and CAA/HuS; for CAA/HuS (Log10 CFU/mL), 1 hr / CAA/HuS (Log10 CFU/mL), 3 hr: CAA + 25% human serum; for CAA/HuS (Log10 CFU/mL), 1 hr / CAA/HuS (Log10 CFU/mL), 3 hr / HEPES (Log10 CFU/mL), 1 hr / HEPES (Log10 CFU/mL), 3 hr: lysin 10 μg/ml, WC-453; for HEPES (Log10 CFU/mL), 1 hr / HEPES (Log10 CFU/mL), 3 hr: 25 mM HEPES pH 7.4
Experimental: Exponential phase bacteria were then pelleted and resuspended in 1/5 culture volume of 25 mM HEPES, pH 7.4 before a final adjustment to an optical density corresponding to a McFarland value of 0.5. […] All treatments were incubated at 37° C. with aeration. At time points before the addition of lysin (or buffer control) and at 1 hour and 3 hours intervals thereafter, culture samples were removed for quantitative plating on CAA agar plates.

[4] = system: carbepenam-resistant clinical isolate WC-453; test: MIC in CAA without or with 25% human serum (Table 5); assay type: cell-based, Pseudomonas aeruginosa; set-up: CAA MIC: unit not given here; conditions: for CAA/HuS MIC: CAA supplemented with 25% human serum
Experimental: MIC values were determined using a modification of the standard broth microdilution reference method defined by the Clinical and Laboratory Standards Institute (CLSI), CLSI. […] Methods for Dilution Antimicrobial Susceptibility Tests for Bacteria That Grow Aerobically; Approved Standard-10th Edition. Clinical and Laboratory Standards Institute, Wayne, Pa.

Molecule | MBEC [1] [µg/mL] | MIC in 25% CAA [2] [µg/mL] | CAA MIC (P. aeruginosa) [µg/mL] | CAA/HuS MIC (P. aeruginosa) [µg/mL] | bactericidal activity (CFU decrease of 3-Log10, 3 hours after the addition of lysin) [3] | CAA/HuS (Log10 CFU/mL), 1 hr [3] [Log10 CFU/mL] | CAA/HuS (Log10 CFU/mL), 3 hr [3] [Log10 CFU/mL] | activity in CAA supplemented with human serum (25%) [4] | CAA MIC [4] | CAA/HuS MIC [4] | HEPES (Log10 CFU/mL), 1 hr [3] [Log10 CFU/mL] | HEPES (Log10 CFU/mL), 3 hr [3] [Log10 CFU/mL] | effect of the structural modification on activity (as assessed by MIC) versus the parent lysin (P. aeruginosa)
B1 | 1 | 2 | 8000 | 62.5 | bactericidal activity | 5.8 | <3.7 |  |  |  |  |  | 
B2 | 1 |  |  |  | bactericidal activity | 5.7 | <3.7 | repressed | >128 | >128 | <3.7 | <3.7 | 
B3 | 0.5 |  | 4000 | 125 |  |  |  |  |  |  |  |  | improves its potency over GN37 both in the absence and presence of human serum
B4 | 0.125 |  | 128000 | 8000 | bactericidal activity | 6.6 | <3.7 | active | 128 | 8 | 6.0 | <3.7 | 
B5 | 0.125 |  |  |  |  | 6.7 | 7.0 |  |  |  | 7.7 | 6.7 | 
B6 | 0.125 |  |  |  | bactericidal activity | 5.7 | <3.7 | active | 64 | 8 | <3.7 | <3.7 | 
B7 |  |  | 8000 | 1000 |  |  |  | active | 8 | 1 |  |  | very strong activity in the presence of human serum
B8 | 1 |  |  |  |  | 6.7 | 6.7 | active | 2 | 2 | 7.7 | 5.4 | 
B9 |  |  | 8000 | 4000 |  |  |  | active | 8 | 1 |  |  | 
B10 | 0.5 | 4 | 16000 | 250 | bactericidal activity | 5.0 | <3.7 |  |  |  |  |  | 
